Laboratory results taken from patent publication US11014896B2, “TRPA1 and TRPV4 inhibitors and methods of using the same for organ-specific inflammation and itch” (Duke University, priority 2014, dated 2021).
“Also recorded” adds a separate entry of the source.

Experiments:
[1] = biological target: T1, TRPV4 (Mus musculus, UniProt Q9EPK8); experiment: 4α-PDD-evoked Ca++ signaling in 1° MK (fura-2); type: cell-based; details: fura-2 ratiometric imaging
T1 construct: endogenous in cells; host or cells: primary mouse epidermal keratinocytes (1° MK), wild type
T1 sequence (Q9EPK8 whole entry): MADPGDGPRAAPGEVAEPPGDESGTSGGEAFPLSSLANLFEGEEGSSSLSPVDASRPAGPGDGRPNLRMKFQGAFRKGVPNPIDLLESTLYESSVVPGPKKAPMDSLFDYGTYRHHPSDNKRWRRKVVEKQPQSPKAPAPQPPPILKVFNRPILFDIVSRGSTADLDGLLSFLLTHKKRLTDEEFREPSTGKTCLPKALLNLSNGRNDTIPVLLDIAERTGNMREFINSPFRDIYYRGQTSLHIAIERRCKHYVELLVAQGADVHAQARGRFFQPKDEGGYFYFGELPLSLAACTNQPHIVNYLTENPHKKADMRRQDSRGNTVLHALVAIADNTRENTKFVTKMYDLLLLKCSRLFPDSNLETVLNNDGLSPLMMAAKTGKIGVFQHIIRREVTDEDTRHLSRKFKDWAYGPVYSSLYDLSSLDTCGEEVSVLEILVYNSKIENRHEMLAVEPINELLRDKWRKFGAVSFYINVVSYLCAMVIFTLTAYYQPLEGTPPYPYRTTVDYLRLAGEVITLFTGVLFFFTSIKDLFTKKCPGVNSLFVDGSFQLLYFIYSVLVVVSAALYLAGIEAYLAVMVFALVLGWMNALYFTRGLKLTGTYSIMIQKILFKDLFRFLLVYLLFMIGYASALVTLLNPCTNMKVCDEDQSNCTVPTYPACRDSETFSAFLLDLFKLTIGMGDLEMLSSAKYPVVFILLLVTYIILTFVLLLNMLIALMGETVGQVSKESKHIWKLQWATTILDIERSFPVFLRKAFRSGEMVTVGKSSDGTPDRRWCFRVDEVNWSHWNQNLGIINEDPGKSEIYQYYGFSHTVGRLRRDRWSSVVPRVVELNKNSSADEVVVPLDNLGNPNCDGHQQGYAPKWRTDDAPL
Protocol: (§1) Ca++ imaging of mouse 1° MK in response to chemical activation of TRPV4 was conducted after loading with 2 μM fura2-AM, following a ratiometric Ca2+ imaging protocol with 340/380 nm […] for dual excitation. Ratios of emissions were acquired at 0.5 Hz. ΔR/R0 was determined as the fraction of the increase of a given ratio over baseline ratio, divided by baseline ratio. For stimulation of cells with UVB, where fura-2 was not suitable because of the proximity of stimulation with 340/380 nm and 295 nm, 2 μM fluo4-AM was used instead. Ca++ imaging was carried out at 488 nm excitation, acquisition of emissions at 0.5 Hz, expressed as ΔF/F0. In the custom-built UV optical system, UV LEDs were capped with a ball lens, a transparent optical window in the shape of a hemispherical lens (FIG. 2B). The LED output optical beam focused at 15-20 mm from the lens, with a spot diameter of approximately 1.5-2.0 mm (FIG. 2C). […] The thermal equilibration stage was set for physiological temperature. We confirmed the non-thermal nature of UVB stimulation using the customized 295 nm LED device in a dedicated experiment (FIG. 2D), thus confirming the specific modality of stimulation as UVB.

[2] = Nocifensive behavior in response to ET1 footpad injection (von Frey); type: in vivo, mouse; details: footpad injection of ET1; WT and oil-treated iKO (control) mice
Protocol: ET1 injections: After determining base-line withdrawal thresholds, each animal received an intraplantar injection of 10 μL 100 nM ET-1 plus contralateral vehicle. Thresholds were again evaluated 1 hour after injection.
Hindpaw mechanical withdrawal thresholds were determined by the automated von Frey hair method, using a 0.5 mm diameter stainless steel filament, part of an automated plantar touch stimulator (Ugo Basile, Modena, Italy). Relevant detail included pre-test acclimatization in a quiet room for 30 min, conducting the test at the same time of day and blinded observers. The stimulus was delivered to the hindpaw, automatically discontinued upon withdrawal, and its intensity recorded automatically. 6-8 trials per animal were conducted, with equal exposure of both hindpaws, leading to an average withdrawal threshold. Results are reported as […], which was calculated by subtracting post-treatment from pre-treatment measurements, expressed as % or relative to 1.0.

[3] = tested on: primary mouse keratinocytes (1° MK); experiment: UVB-evoked Ca++ signaling in primary mouse keratinocytes (fluo-4 imaging); type: cell-based; details: GSK205 20 μM
Protocol: Ca++ imaging of 1° MK was conducted following routine procedures. For UVB stimulation, a customized device was built. The system comprised a printed circuit board for electrical interconnects and mechanical support and an ultraviolet light-emitting diode (UV LED).
The operating wavelength was 295 nm (FIG. 2A), with a full-width half-max of 12 nm. The optical power was 500 mW. The focal point was aimed at the plane of the upper surface of the quartz coverslip, which was used to minimize UV absorption along the optical path towards the cells (FIG. 2A-FIG. 2C). The optical intensity at the focal point was estimated to be 150 mW/mm^2.
as §1, with “temperature.” for “temperature. We confirmed the non-thermal nature of UVB stimulation using the customized 295 nm LED device in a dedicated experiment (FIG. 2D), thus confirming the specific modality of stimulation as UVB.”

[4] = biological target: T1, TRPV4; experiment: GSK101-evoked Ca++ transient in 1° MK; type: cell-based; details: 5 nM GSK101; GSK205 20 μM
Protocol: as §1

Question: Which “4α-PDD-evoked Ca++ transients on co-application” value [1] does the source give for “ET1: endothelin-1, cognate peptide ligand of endothelin receptors” here?
Answer: Its value is “significant increase in the response”.

Question: And the “mechanical allodynia / von Frey withdrawal thresholds after ET1 injection” value [2]?
Answer: The value was “significantly lowered; also recorded: significant levels of mechanical allodynia”.

Question: And the “UVB-evoked Ca++ signaling (ΔF/F0)” value [3]?
Answer: Its value is “significant increase; also recorded: augmentation”.

Question: What about the “GSK101-evoked Ca++ transient” value [4] of the same substance?
Answer: Its value is “augmented; also recorded: increase in signal”.
